Article PMC12802153, “Cryo-EM reveals the structural heterogeneity and conformational flexibility of multidrug efflux pumps MdtB and MdtF” (mBio, 2025)

B1: MdtB, multidrug efflux HAE-RND transporter from Escherichia coli (natural protein)
chain: MQVLPPSSTGGPSRLFIMRPVATTLLMVAILLAGIIGYRALPVSALPEVDYPTIQVVTLYPGASPDVMTSAVTAPLERQFGQMSGLKQMSSQSSGGASVITLQFQLTLPLDVAEQEVQAAINAATNLLPSDLPNPPVYSKVNPADPPIMTLAVTSTAMPMTQVEDMVETRVAQKISQISGVGLVTLSGGQRPAVRVKLNAQAIAALGLTSETVRTAITGANVNSAKGSLDGPSRAVTLSANDQMQSAEEYRQLIIAYQNGAPIRLGDVATVEQGAENSWLGAWANKEQAIVMNVQRQPGANIISTADSIRQMLPQLTESLPKSVKVTVLSDRTTNIRASVDDTQFELMMAIALVVMIIYLFLRNIPATIIPGVAVPLSLIGTFAVMVFLDFSINNLTLMALTIATGFVVDDAIVVIENISRYIEKGEKPLAAALKGAGEIGFTIISLTFSLIAVLIPLLFMGDIVGRLFREFAITLAVAILISAVVSLTLTPMMCARMLSQESLRKQNRFSRASEKMFDRIIAAYGRGLAKVLNHPWLTLSVALSTLLLSVLLWVFIPKGFFPVQDNGIIQGTLQAPQSSSFANMAQRQRQVADVILQDPAVQSLTSFVGVDGTNPSLNSARLQINLKPLDERDDRVQKVIARLQTAVDKVPGVDLFLQPTQDLTIDTQVSRTQYQFTLQATSLDALSTWVPQLMEKLQQLPQLSDVSSDWQDKGLVAYVNVDRDSASRLGISMADVDNALYNAFGQRLISTIYTQANQYRVVLEHNTENTPGLAALDTIRLTSSDGGVVPLSSIAKIEQRFAPLSINHLDQFPVTTISFNVPDNYSLGDAVQAIMDTEKTLNLPVDITTQFQGSTLAFQSALGSTVWLIVAAVVAMYIVLGILYESFIHPITILSTLPTAGVGALLALLIAGSELDVIAIIGIILLIGIVKKNAIMMIDFALAAEREQGMSPREAIYQACLLRFRPILMTTLAALLGALPLMLSTGVGAELRRPLGIGMVGGLIVSQVLTLFTTPVIYLLFDRLALWTKSRFARHEEEA
notes: MdtB, RND inner membrane transporter of the MdtABC system, Escherichia coli; gene PCR amplified from E. coli genomic DNA, cloned into pET21a(+) between NdeI and XhoI; wild type; the whole gene appears to have been cloned. ~110 kDa band on SDS-PAGE; also called homotrimeric MdtB; source: E. coli BL21ΔacrB acrD mdtABC (NKE1317), purified (2% DDM extraction, Ni-NTA, SEC in 0.03% DDM); for cryo-EM …
B2: MdtF, multidrug efflux HAE-RND transporter from Escherichia coli (natural protein)
chain: MANYFIDRPVFAWVLAIIMMLAGGLAIMNLPVAQYPQIAPPTITVSATYPGADAQTVEDSVTQVIEQNMNGLDGLMYMSSTSDAAGNASITLTFETGTSPDIAQVQVQNKLQLAMPSLPEAVQQQGISVDKSSSNILMVAAFISDNGSLNQYDIADYVASNIKDPLSRTAGVGSVQLFGSEYAMRIWLDPQKLNKYNLVPSDVISQIKVQNNQISGGQLGGMPQAADQQLNASIIVQTRLQTPEEFGKILLKVQQDGSQVLLRDVARVELGAEDYSTVARYNGKPAAGIAIKLAAGANALDTSRAVKEELNRLSAYFPASLKTVYPYDTTPFIEISIQEVFKTLVEAIILVFLVMYLFLQNFRATIIPTIAVPVVILGTFAILSAVGFTINTLTMFGMVLAIGLLVDDAIVVVENVERVIAEDKLPPKEATHKSMGQIQRALVGIAVVLSAVFMPMAFMSGATGEIYRQFSITLISSMLLSVFVAMSLTPALCATILKAAPEGGHKPNALFARFNTLFEKSTQHYTDSTRSLLRCTGRYMVVYLLICAGMAVLFLRTPTSFLPEEDQGVFMTTAQLPSGATMVNTTKVLQQVTDYYLTKEKDNVQSVFTVGGFGFSGQGQNNGLAFISLKPWSERVGEENSVTAIIQRAMIALSSINKAVVFPFNLPAVAELGTASGFDMELLDNGNLGHEKLTQARNELLSLAAQSPNQVTGVRPNGLEDTPMFKVNVNAAKAEAMGVALSDINQTISTAFGSSYVNDFLNQGRVKKVYVQAGTPFRMLPDNINQWYVRNASGTMAPLSAYSSTEWTYGSPRLERYNGIPSMEILGEAAAGKSTGDAMKFMADLVAKLPAGVGYSWTGLSYQEALSSNQAPALYAISLVVVFLALAALYESWSIPFSVMLVVPLGVVGALLATDLRGLSNDVYFQVGLLTTIGLSAKNAILIVEFAVEMMQKEGKTPIEAIIEAARMRLRPILMTSLAFILGVLPLVISHGAGSGAQNAVGTGVMGGMFAATVLAIYFVPVFFVVVEHLFARFKKA
notes: MdtF, RND inner membrane transporter of the MdtEF system, Escherichia coli; gene PCR amplified from E. coli genomic DNA, cloned into pET21a(+) between NdeI and XhoI; wild type; the whole gene appears to have been cloned. ~110 kDa band on SDS-PAGE; source: E. coli BL21ΔacrB acrD mdtABC (NKE1317), purified (2% DDM extraction, Ni-NTA, SEC in 0.03% DDM)

Molecular target: the molecule itself
Assay: SEC; Superdex 200 Increase 10/300 GL, 25 mM HEPES pH 7.5, 100 mM NaCl, 0.03% DDM; elution volume compared with the trimeric molecular weight

Protein | stoichiometry N
B1 | 3
B2 | 3
